Results on four molecules are retold here after publication PMC2265524, “ruvA Mutants That Resolve Holliday Junctions but Do Not Reverse Replication Forks” (PLoS Genetics, 2008).

By stoichiometry N is commonly meant a count of units in the complex or per binding partner.

The target of data set [1] is T1, wild-type RuvB protein (E. coli) (UniProt P0A812).
T1 sequence: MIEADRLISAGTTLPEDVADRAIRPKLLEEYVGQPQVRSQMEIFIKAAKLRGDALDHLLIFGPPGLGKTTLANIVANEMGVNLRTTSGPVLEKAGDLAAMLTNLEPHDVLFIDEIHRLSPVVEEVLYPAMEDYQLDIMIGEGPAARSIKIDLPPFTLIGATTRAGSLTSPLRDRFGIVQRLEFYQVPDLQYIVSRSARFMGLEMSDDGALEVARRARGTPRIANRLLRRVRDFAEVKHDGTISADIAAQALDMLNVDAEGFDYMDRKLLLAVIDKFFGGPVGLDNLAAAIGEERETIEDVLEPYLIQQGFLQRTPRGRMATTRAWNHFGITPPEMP

Data set [2] concerns the molecule itself. Briefly: SDS-PAGE without boiling the protein samples; purified RuvA mutant proteins run on SDS-PAGE without boiling; tetramer band under denaturing gel conditions; data not shown.
The next data set deals with T2, RuvA wild type (Escherichia coli, UniProt P0A809 1-203).
T2 sequence: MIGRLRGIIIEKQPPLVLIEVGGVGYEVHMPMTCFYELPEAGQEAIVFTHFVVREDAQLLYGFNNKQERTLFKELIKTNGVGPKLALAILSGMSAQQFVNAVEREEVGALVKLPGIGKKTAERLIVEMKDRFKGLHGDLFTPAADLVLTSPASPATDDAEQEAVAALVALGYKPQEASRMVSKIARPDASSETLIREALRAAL
Description: EMSA; EDTA; complexes I and II; EMSA with ~4-5 ng labelled DNA; 5 mM EDTA (gel 0.5x TBE) or 3 mM MgCl2 without EDTA (gel 0.5x TB + 200 uM MgCl2); buffer as in cited ref 18; salt, pH and temperature not stated. The settings on record: protein: recombinant; chain copies: 4; label: 5' IRD700 on S24 (IT.01); four-way junction of 4 strands. Background: In EMSA bound probe runs differently from free probe, usually more slowly.

B1: wild-type RuvA (natural protein)
chain: MIGRLRGIIIEKQPPLVLIEVGGVGYEVHMPMTCFYELPEAGQEAIVFTHFVVREDAQLLYGFNNKQERTLFKELIKTNGVGPKLALAILSGMSAQQFVNAVEREEVGALVKLPGIGKKTAERLIVEMKDRFKGLHGDLFTPAADLVLTSPASPATDDAEQEAVAALVALGYKPQEASRMVSKIARPDASSETLIREALRAAL
In the case of B1, in data set [1], the RuvA concentration required for RuvB (250 nM) to unwind 50% of a labelled 52-mer annealed to phiX174 ssDNA (DNA helicase assay) is 100 nM.

B2: RuvAz87 (natural protein, E. coli, UniProt P0A809 1-203, looked up)
chain: MIGRLRGIIIEKQPPLVLIEVGGVGYEVHMPMTCFYELPEAGQEAIVFTHFVVREDAQLLYGFNNKQERTLFKELIKTDGVGPKLALAILSGMSAQQFVDAVEREEVGALVKLPGIGKKTAERLIVEMKDRFKGLHGDLFTPAADLVLTSPASPATDDAEQEAVAALVALGYKPQEASRMVSKIARPDASSETLIREALRAAL
notes: RuvA of E. coli with the two mutations N79D N100D; Purification steps and expression construct of the mutant proteins are in the supplementary material (Text S1); also called ruvAz87 (N79D N100D); ruvA87; source: over-expressed in E. coli and purified
Turning to B2, the “stoichiometry N” value in data set [2] is 4.

B3: RuvAz3 (natural protein, E. coli, UniProt P0A809 1-203, looked up)
chain: MIGRLRGIIIEKQPPLVLIEVGGVGYEVRMPMTCFYELPEAGQEAIVFTHFVVREDAQLLYGFNNKQERTLFKELIKTNGVGPKLALAILSGMSAQQFVNAVEREEVGALVKLPGIGKKTAERLIVEMEDRFKGLHGDLSTPAADLVLTSPASPATDDAEQEAVAALVALGYKPQEASRMVSKIARPDASSETLIREALRAAL
notes: RuvA of E. coli with the three mutations H29R K129E F140S; Purification steps and expression construct of the mutant proteins are in the supplementary material (Text S1); also called ruvAz3 (H29R K129E F140S); pGB-ruvAz3; source: over-expressed in E. coli and purified
For B3, in data set [2], the “stoichiometry N” value was determined as 4.

B4: X12 (synthetic Holliday junction) (structured_DNA)
DNA 1: GACGCTGCCGAATTCTACCAGTGCCTTGCTAGGACATCTTTGCCCACCTGCAGGTTCACCC
DNA 2: TGGGTGAACCTGCAGGTGGGCAAAGATGTCCTAGCAATGTAATCGTCAAGCTTTATGCCGTT
DNA 3: CAACGGCATAAAGCTTGACGATTACATTGCTAGGACATGCTGTCTAGAGGATCCGACTATCGA
DNA 4: ATCGATAGTCGGATCCTCTAGACAGCATGTCCTAGCAAGGCACTGGTAGAATTCGGCAGCGT
For B4, in the data set with RuvA wild type, the binding result is “binds”.
